Test system: peptide library, one residue held at a place counted from the Y acceptor
Assay: relative phosphorylation of the sub-library (ratio to the mean residue at this position); higher = residue favoured
Summary of the method: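 Every value reflects phosphorylation relative to the mean randomized residue. The sum of the 18 randomized residues, or 16 in the Ser/Thr-free library, served to normalize intensities at each position, which were then multiplied by that number. Intensities came from phosphorimaging with ImageQuant of biotinylated Tyr-centred peptides captured on streptavidin membranes after 90 min with purified recombinant kinases and 50 μM ATP plus γ-32P-ATP.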

Chain of EPHA1, construct: aa568-end, human (P21709 568-976, looked up): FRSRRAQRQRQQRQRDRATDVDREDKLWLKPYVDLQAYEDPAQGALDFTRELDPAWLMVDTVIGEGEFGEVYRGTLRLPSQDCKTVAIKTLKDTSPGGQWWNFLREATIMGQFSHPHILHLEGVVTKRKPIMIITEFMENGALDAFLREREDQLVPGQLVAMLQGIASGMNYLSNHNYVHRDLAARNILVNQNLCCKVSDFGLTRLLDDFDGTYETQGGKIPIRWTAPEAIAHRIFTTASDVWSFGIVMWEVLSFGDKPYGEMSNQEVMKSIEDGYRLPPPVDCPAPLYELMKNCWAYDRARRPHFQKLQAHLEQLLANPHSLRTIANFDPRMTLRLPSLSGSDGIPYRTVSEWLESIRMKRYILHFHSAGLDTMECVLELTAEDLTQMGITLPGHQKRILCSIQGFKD
Chain of EPHA2, construct: aa561-end, human (P29317 561-976, looked up): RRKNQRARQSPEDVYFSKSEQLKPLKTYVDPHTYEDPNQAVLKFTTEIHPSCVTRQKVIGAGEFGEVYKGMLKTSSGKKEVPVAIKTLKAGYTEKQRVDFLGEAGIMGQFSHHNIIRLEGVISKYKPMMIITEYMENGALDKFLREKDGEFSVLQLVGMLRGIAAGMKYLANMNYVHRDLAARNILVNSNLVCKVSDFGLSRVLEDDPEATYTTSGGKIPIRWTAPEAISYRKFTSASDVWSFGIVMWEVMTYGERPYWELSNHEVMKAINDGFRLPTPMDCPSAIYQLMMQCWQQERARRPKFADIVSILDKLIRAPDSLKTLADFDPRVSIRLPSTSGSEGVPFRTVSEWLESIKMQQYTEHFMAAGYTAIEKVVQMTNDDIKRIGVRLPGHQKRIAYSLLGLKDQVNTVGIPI
Chain of EPHA3, construct: aa571-end, human (P29320 571-983, looked up): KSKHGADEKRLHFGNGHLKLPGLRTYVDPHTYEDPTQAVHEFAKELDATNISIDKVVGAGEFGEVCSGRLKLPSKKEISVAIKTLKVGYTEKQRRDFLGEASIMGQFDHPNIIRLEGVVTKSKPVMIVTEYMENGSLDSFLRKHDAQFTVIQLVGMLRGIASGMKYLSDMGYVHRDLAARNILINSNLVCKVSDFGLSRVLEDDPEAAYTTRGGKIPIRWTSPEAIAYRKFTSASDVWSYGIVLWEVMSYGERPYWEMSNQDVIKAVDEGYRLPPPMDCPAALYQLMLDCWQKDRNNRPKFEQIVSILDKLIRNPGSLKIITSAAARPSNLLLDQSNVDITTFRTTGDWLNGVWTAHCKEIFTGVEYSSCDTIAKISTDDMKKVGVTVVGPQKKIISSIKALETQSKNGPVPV

EPHA1, construct: aa568-end, human (from UniProt P21709)
relative phosphorylation
Settings | at +1 | at +2 | at +3 | at +4 | at +5 | at -1 | at -2 | at -3 | at -4 | at -5
A fixed | 1.63 | 0.704 | 0.7 | 0.747 | 1.08 | 0.615 | 1.22 | 0.904 | 1.25 | 1.1
D fixed | 0.645 | 0.963 | 0.21 | 0.562 | 0.699 | 0.705 | 0.891 | 1.06 | 0.864 | 0.752
E fixed | 1.87 | 1.03 | 0.191 | 0.665 | 0.616 | 0.52 | 1.04 | 1.18 | 1.11 | 0.59
F fixed | 0.853 | 1.68 | 1.4 | 1.27 | 1.17 | 1.37 | 0.531 | 1.16 | 0.936 | 1.1
G fixed | 0.729 | 0.307 | 0.486 | 1.21 | 1.21 | 0.23 | 1.38 | 1.07 | 1.47 | 1.26
H fixed | 0.604 | 0.912 | 0.877 | 1.38 | 0.987 | 0.87 | 1.03 | 1.18 | 0.919 | 0.917
I fixed | 1.41 | 0.997 | 2.57 | 0.732 | 0.92 | 2.74 | 0.716 | 0.784 | 0.853 | 0.941
K fixed | 0.292 | 0.642 | 0.319 | 0.931 | 1.12 | 0.381 | 1 | 0.801 | 0.993 | 1.12
L fixed | 1.15 | 1.18 | 2.29 | 0.816 | 0.955 | 2.38 | 0.789 | 0.803 | 1 | 1.07
M fixed | 1.88 | 1.21 | 1.5 | 1.26 | 0.966 | 1.11 | 0.633 | 0.926 | 0.948 | 0.968
N fixed | 0.276 | 1.17 | 0.385 | 0.726 | 0.773 | 1 | 1.11 | 1.16 | 0.852 | 0.937
P fixed | 0.157 | 0.521 | 1.26 | 1.19 | 1.57 | 0.445 | 1.29 | 0.929 | 1.13 | 1.17
Q fixed | 1.11 | 0.792 | 0.679 | 0.86 | 0.807 | 0.433 | 1.05 | 0.77 | 0.95 | 0.914
R fixed | 0.477 | 1.06 | 0.696 | 1.47 | 1.13 | 0.587 | 1.36 | 1.07 | 1.23 | 1.26
S fixed | 0.799 | 0.697 | 0.488 | 0.739 | 1 | 0.391 | 1.46 | 1.03 | 0.868 | 0.86
T fixed | 0.823 | 0.867 | 0.576 | 0.813 | 0.9 | 1.19 | 0.845 | 0.917 | 0.666 | 0.725
V fixed | 1.93 | 0.974 | 2.03 | 0.73 | 0.853 | 1.43 | 0.821 | 0.78 | 0.827 | 0.913
W fixed | 1.36 | 2.3 | 1.36 | 1.89 | 1.24 | 1.61 | 0.821 | 1.48 | 1.14 | 1.4
pThr fixed | 0.981 | 1.05 | 0.17 | 0.4 | 0.508 | 1.39 | 0.685 | 0.721 | 0.608 | 0.558
pTyr fixed | 1.87 | 2.54 | 0.57 | 0.629 | 0.727 | 0.904 | 0.81 | 0.888 | 0.88 | 0.684

EPHA2, construct: aa561-end, human (from UniProt P29317)
relative phosphorylation
Settings | at +1 | at +2 | at +3 | at +4 | at +5 | at -1 | at -2 | at -3 | at -4 | at -5
A fixed | 1.31 | 0.627 | 0.592 | 0.785 | 0.992 | 0.392 | 1.11 | 0.791 | 1.04 | 0.971
D fixed | 0.849 | 1.83 | 0.379 | 0.913 | 1.26 | 3.48 | 1.25 | 1.54 | 1.25 | 1.23
E fixed | 2.74 | 2.13 | 0.34 | 1.28 | 1.22 | 2.02 | 1.74 | 1.76 | 1.41 | 1.03
F fixed | 0.725 | 1.35 | 1.4 | 1.13 | 1.1 | 0.943 | 0.617 | 1.32 | 1.09 | 1.12
G fixed | 0.517 | 0.298 | 0.508 | 1.15 | 1.15 | 0.198 | 1.22 | 0.847 | 1.26 | 1.15
H fixed | 1.65 | 0.815 | 0.725 | 1.29 | 0.993 | 0.836 | 0.817 | 1.06 | 0.843 | 0.916
I fixed | 1.84 | 1.08 | 3.27 | 0.777 | 0.778 | 1.92 | 0.914 | 0.914 | 0.999 | 1.04
K fixed | 0.165 | 0.339 | 0.183 | 0.567 | 0.616 | 0.17 | 0.657 | 0.502 | 0.737 | 0.873
L fixed | 0.892 | 0.944 | 1.84 | 0.662 | 0.877 | 1.83 | 0.82 | 0.873 | 1.05 | 1.05
M fixed | 1.62 | 0.988 | 1.64 | 0.989 | 0.87 | 0.733 | 0.654 | 0.809 | 0.986 | 0.978
N fixed | 0.322 | 1.07 | 0.395 | 0.718 | 0.8 | 1.83 | 1.3 | 1.07 | 0.802 | 1.06
P fixed | 0.15 | 0.54 | 1.33 | 1.52 | 1.67 | 0.257 | 1.24 | 1.08 | 1.07 | 0.972
Q fixed | 0.852 | 0.723 | 0.628 | 0.844 | 0.773 | 0.351 | 1.01 | 0.774 | 1.05 | 0.986
R fixed | 0.18 | 0.481 | 0.262 | 0.692 | 0.613 | 0.219 | 0.832 | 0.607 | 0.871 | 0.92
S fixed | 0.61 | 0.691 | 0.426 | 1.02 | 1.02 | 0.366 | 1.39 | 0.923 | 0.815 | 0.835
T fixed | 0.783 | 0.816 | 0.621 | 0.886 | 1.22 | 0.931 | 1 | 0.903 | 0.79 | 0.827
V fixed | 1.81 | 1.05 | 2.07 | 0.759 | 0.827 | 0.974 | 0.838 | 0.888 | 0.802 | 0.9
W fixed | 0.979 | 2.23 | 1.4 | 2.02 | 1.21 | 0.554 | 0.61 | 1.34 | 1.12 | 1.15
pThr fixed | 2.09 | 2.85 | 0.454 | 1.09 | 0.852 | 3.53 | 0.956 | 0.833 | 1.22 | 1.26
pTyr fixed | 3.93 | 7.03 | 1.08 | 1.44 | 1.31 | 4.75 | 1.15 | 1.43 | 1.54 | 1.4

EPHA3, construct: aa571-end, human (from UniProt P29320)
relative phosphorylation
Settings | at +1 | at +2 | at +3 | at +4 | at +5 | at -1 | at -2 | at -3 | at -4 | at -5
A fixed | 1.63 | 0.63 | 0.711 | 0.794 | 1.05 | 0.536 | 1.11 | 0.827 | 1.03 | 0.924
D fixed | 1.1 | 1.73 | 0.574 | 1.03 | 1.04 | 2.68 | 1.16 | 1.07 | 1.06 | 0.949
E fixed | 1.89 | 1.71 | 0.544 | 1.06 | 0.941 | 1.19 | 1.04 | 1.17 | 1.05 | 0.848
F fixed | 0.91 | 1.44 | 1.4 | 1.16 | 1.42 | 0.997 | 0.863 | 1.32 | 1.3 | 1.15
G fixed | 0.902 | 0.424 | 0.526 | 1.14 | 0.981 | 0.389 | 1.04 | 0.853 | 1.01 | 1.02
H fixed | 0.53 | 0.717 | 0.69 | 0.998 | 0.756 | 0.534 | 0.804 | 0.959 | 0.859 | 0.996
I fixed | 1.18 | 1.02 | 2.34 | 0.801 | 0.925 | 1.83 | 0.939 | 1.11 | 0.974 | 0.999
K fixed | 0.407 | 0.47 | 0.403 | 0.685 | 0.653 | 0.382 | 0.899 | 0.674 | 0.918 | 1.01
L fixed | 0.982 | 0.908 | 1.62 | 0.754 | 1.19 | 1.75 | 1.13 | 0.995 | 1.34 | 1.11
M fixed | 1.17 | 0.915 | 0.989 | 0.951 | 0.885 | 0.827 | 0.747 | 0.976 | 0.837 | 0.891
N fixed | 0.556 | 1.05 | 0.514 | 0.809 | 0.774 | 2.18 | 0.942 | 1.06 | 0.817 | 1.03
P fixed | 0.353 | 0.567 | 1.42 | 1.25 | 1.52 | 0.44 | 1.15 | 1.02 | 1.06 | 1.09
Q fixed | 1.28 | 0.789 | 0.775 | 0.997 | 0.8 | 0.567 | 1.25 | 0.894 | 1.09 | 1.02
R fixed | 0.473 | 0.601 | 0.505 | 0.809 | 0.648 | 0.411 | 0.842 | 0.806 | 0.847 | 0.982
S fixed | 0.811 | 0.685 | 0.63 | 0.877 | 1.06 | 0.525 | 1.28 | 0.902 | 0.785 | 0.836
T fixed | 0.694 | 0.742 | 0.589 | 0.866 | 0.841 | 0.867 | 0.805 | 0.885 | 0.653 | 0.774
V fixed | 1.59 | 0.905 | 1.85 | 0.779 | 1.04 | 1.04 | 1.04 | 0.994 | 0.903 | 0.836
W fixed | 1.54 | 2.7 | 1.92 | 2.23 | 1.47 | 0.849 | 0.966 | 1.48 | 1.48 | 1.53
pThr fixed | 1.53 | 2.12 | 0.736 | 1.05 | 0.946 | 1.88 | 1.04 | 0.915 | 0.851 | 0.854
pTyr fixed | 1.9 | 7.49 | 1.44 | 1.89 | 1.07 | 2.88 | 1.1 | 1.22 | 1.13 | 1.15

Reference: the supplement of paper PMC11136658
